Biological target: T1, micro-array bound histone H3 peptides (Homo sapiens, UniProt P68431)
T1 construct: 48 discrete histone H3 peptides containing a wide range of histone modifications at defined residues; made in house; host or cells: peptides by chemical solid phase synthesis
Experiment: Histone peptide microarray-based methylation assay (SET 7/9)
Type: biochemical
Settings: 12 hrs, 30° C. methylation buffer; 100 uM, 70 ul SET 7/9; FIG. 15
Procedure: FIG. 15. SET 7/9 dependent methylation of micro-array bound histone peptides. Microarray slides containing duplicate arrays (dashed boxes) of 48 discrete histone H3 peptides containing a wide range of histone modifications at defined residues. These were incubated with the methyl-transferase enzyme SET7/9 (Bottom panel) or a buffer containing no enzyme (Control, top panel), and subsequently probed with an anti-H3K4me1 antibody.
Methylation assays were performed using the recombinant human histone methyl-transferase SET 7/9 under standard methylation conditions. Assays on the microarrays of the invention were performed under coverslips, enabling small volumes of reagent usage per assay (70 μl). Enzyme-mediated methylation is detected by a histone methyl specific antibody (i.e. anti-histone H3 mono-methyl K4) by standard Western blotting conditions.
Importantly, reproducible patterns of modification are generated on the different peptides (the dashed boxes contain duplicate arrays of 48 epitope spots) allowing users to analyse the effects of defined modifications on methyl transfer by the enzyme.

B1: SET 7/9: recombinant human histone methyl-transferase SET 7/9 (protein)
chain: MDSDDEMVEEAVEGHLDDDGLPHGFCTVTYSSTDRFEGNFVHGEKNGRGKFFFFDGSTLEGYYVDDALQGQGVYTYEDGGVLQGTYVDGELNGPAQEYDTDGRLIFKGQYKDNIRHGVCWIYYPDGGSLVGEVNEDGEMTGEKIAYVYPDERTALYGKFIDGEMIEGKLATLMSTEEGRPHFELMPGNSVYHFDKSTSSCISTNALLPDPYESERVYVAESLISSAGEGLFSKVAVGPNTVMSFYNGVRITHQEVDSRDWALNGNTLSLDEETVIDVPEPYNHVSKYCASLGHKANHSFTPNCIYDMFVHPRFGPIKCIRTLRAVEADEELTVAYGYDHSPPGKSGPEAPEWYQVELKAFQATQQK
For B1, the “enzyme-mediated methylation of array peptides detected by anti-histone H3 mono-methyl K4 antibody” value was “specific enzymatic methyl transferase activity occurs”.

From US20090149343A1, “HISTONES” (priority 2006, published 2009)
